Experimental data: patent US20220268787A1 (JW BIOSCIENCE, published 2022)

What was measured:
Experiment in all cases: indirect ELISA, antigen coated at 1 µg/ml
[1] = target: T1, CRS (cysteinyl-tRNA synthetase) (UniProt P49589 1-748, limits assumed)
T1 sequence (looked up): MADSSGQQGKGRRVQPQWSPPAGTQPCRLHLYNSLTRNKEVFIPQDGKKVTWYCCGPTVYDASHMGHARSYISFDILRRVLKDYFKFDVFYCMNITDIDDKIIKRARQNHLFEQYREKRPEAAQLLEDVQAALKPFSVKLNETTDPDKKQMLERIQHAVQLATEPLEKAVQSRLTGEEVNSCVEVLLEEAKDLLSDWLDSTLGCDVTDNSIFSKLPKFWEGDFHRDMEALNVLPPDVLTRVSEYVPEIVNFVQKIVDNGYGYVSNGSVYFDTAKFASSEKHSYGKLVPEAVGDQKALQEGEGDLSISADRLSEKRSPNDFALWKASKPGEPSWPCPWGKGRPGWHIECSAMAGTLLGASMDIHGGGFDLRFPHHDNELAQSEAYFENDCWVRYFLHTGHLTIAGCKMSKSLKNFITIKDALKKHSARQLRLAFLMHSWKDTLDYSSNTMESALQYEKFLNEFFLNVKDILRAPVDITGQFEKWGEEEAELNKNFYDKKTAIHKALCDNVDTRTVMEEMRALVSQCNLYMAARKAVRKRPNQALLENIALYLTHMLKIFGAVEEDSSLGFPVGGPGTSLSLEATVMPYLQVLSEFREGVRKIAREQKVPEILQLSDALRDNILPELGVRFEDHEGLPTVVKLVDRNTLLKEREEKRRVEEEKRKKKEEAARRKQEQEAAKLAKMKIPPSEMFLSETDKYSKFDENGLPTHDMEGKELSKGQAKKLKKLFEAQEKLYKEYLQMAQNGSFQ

[2] = target: T2, AIMP1 (aminoacyl tRNA synthase complex-interacting multifunctional protein 1) (UniProt Q12904 1-312, limits assumed)
T2 construct: also called p43
T2 sequence (looked up): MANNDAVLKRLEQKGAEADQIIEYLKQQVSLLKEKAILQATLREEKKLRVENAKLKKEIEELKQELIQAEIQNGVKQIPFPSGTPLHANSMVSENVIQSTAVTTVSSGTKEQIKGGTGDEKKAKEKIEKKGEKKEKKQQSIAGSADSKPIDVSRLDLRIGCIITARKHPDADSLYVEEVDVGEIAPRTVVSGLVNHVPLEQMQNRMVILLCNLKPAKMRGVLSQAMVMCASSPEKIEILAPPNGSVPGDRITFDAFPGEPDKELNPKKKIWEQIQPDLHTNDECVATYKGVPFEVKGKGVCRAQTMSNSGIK

[3] = target: T3, GRS (glycyl tRNA synthetase) (UniProt P41250 55-739, limits assumed)
T3 sequence (looked up): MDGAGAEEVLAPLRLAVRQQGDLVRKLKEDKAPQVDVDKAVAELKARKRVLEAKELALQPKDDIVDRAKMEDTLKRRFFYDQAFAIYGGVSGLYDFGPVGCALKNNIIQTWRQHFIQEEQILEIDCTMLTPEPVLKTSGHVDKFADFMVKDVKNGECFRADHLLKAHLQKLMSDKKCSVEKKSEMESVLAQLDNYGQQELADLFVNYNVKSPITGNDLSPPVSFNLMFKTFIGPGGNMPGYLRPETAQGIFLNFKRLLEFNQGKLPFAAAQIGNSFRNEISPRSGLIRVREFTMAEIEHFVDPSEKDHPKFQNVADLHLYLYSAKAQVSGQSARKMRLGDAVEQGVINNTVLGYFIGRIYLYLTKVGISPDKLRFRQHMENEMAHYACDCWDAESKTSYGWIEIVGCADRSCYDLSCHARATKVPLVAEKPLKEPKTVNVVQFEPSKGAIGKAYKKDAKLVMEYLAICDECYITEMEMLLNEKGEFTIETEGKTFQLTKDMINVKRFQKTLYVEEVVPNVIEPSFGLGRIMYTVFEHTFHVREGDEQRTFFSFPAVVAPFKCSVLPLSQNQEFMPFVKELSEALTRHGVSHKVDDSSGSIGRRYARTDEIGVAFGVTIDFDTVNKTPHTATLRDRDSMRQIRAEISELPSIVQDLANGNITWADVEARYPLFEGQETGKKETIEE

[4] = target: KRS (lysyl tRNA synthetase) (UniProt Q15046 1-597, limits assumed)

Measured: binding result

Chain of KRS (lysyl tRNA synthetase) (Q15046 whole entry): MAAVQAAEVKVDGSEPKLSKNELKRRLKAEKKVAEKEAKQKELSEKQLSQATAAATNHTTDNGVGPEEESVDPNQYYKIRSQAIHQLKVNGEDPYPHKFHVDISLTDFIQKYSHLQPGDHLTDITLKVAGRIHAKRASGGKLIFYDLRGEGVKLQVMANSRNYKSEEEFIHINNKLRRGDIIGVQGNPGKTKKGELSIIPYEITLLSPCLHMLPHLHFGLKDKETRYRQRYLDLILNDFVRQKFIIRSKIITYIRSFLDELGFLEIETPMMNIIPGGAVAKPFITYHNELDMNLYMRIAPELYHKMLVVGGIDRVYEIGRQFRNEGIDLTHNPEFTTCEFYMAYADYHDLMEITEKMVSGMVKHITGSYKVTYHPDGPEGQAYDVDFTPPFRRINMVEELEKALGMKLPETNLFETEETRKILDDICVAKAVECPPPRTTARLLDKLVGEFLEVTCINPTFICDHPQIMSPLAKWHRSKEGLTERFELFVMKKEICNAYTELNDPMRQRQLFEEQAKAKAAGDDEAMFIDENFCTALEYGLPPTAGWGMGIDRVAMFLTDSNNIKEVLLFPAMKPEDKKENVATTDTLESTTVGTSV

B1: 4D10G6 monoclonal antibody (antibody, V domains shown)
VH: EFQLQQSGPELVKPGASVKISCKASGYAFIDYNMNWVKQSNGKSLEWIGVINPNYGTIRYNQKFKGKATLTVDQSSSTAYMQLNSLTSEDSAVYYCAGLLRGYYAMDYWGQGTSVTVSS
VL: QAVVTQESALTTSPGETVTLTCRSSTGAVTTSNYANWVQEKPDHLFTGLIGGTNNRAPGVPARFSGSLIGDKAALTITGAQTEDEAIYFCVLWYSNHWVFGGGTKLTVL
notes: Mouse hybridoma monoclonal (Balb/c), purified from ascites on Protein A or G beads; also called the antibody according to the present invention
no binding (tested: 500 ng/ml): all assays above
